Substrate in this series: CC(=O)OC[C@H](N)C(=O)O
In words: purified protein. The settings on record: 15 mM Na2S, MOPS, 37 °C, no glycerol.

B1: SaCysK (Staphylococcus aureus subsp. aureus N315) (protein)
chain: MAQKPVDNITQIIGGTPVVKLRNVVDDNAADVYVKLEYQNPGGSVKDRIALAMIEKAEREGKIKPGDTIVEPTSGNTGIGLAFVCAAKGYKAVFTMPETMSQERRNLLKAYGAELVLTPGSEAMKGAIKKAKELKEEHGYFEPQQFENPANPEVHELTTGPELLQQFEGKTIDAFLAGVGTGGTLSGVGKVLKKEYPNIEIVAIEPEASPVLSGGEPGPHKLQGLGAGFIPGTLNTEIYDSIIKVGNDTAMEMSRRVAKEEGILAGISSGAAIYAAIQKAKELGKGKTVVTVLPSNGERYLSTPLYSFDD
With B1, the Michaelis constant (Km) was found to be 1.378 ± 0.592 mM.

The term Km denotes the concentration of substrate that gives half-maximal velocity.

The values are drawn from doi:10.1101/2025.03.26.645513v1.
